Measured values published in the supplement of paper PMC10065799, “High-throughput profiling of sequence recognition by tyrosine kinases and SH2 domains using bacterial peptide display” (eLife, 2023).

Key:
SHP2-C SH2 = test: SH2 binding enrichment of the phosphorylated peptide, bacterial display (enrichment ratio); higher = better substrate or ligand; peptides without Tyr show the background
c-Src SH2 = test: as above
Grb2 SH2 = Grb2 SH2 (UniProt P62993); test: as above
EPHB1 = EPHB1 (UniProt P54762); test: phosphorylation enrichment, bacterial display (enrichment ratio); higher = better substrate or ligand; peptides without Tyr show the background
c-Abl (mouse) = test: as above
Fer (mouse) = test: as above
MERTK = MERTK (UniProt Q12866); test: as above
MERTK, sequence (Q12866 whole entry, looked up): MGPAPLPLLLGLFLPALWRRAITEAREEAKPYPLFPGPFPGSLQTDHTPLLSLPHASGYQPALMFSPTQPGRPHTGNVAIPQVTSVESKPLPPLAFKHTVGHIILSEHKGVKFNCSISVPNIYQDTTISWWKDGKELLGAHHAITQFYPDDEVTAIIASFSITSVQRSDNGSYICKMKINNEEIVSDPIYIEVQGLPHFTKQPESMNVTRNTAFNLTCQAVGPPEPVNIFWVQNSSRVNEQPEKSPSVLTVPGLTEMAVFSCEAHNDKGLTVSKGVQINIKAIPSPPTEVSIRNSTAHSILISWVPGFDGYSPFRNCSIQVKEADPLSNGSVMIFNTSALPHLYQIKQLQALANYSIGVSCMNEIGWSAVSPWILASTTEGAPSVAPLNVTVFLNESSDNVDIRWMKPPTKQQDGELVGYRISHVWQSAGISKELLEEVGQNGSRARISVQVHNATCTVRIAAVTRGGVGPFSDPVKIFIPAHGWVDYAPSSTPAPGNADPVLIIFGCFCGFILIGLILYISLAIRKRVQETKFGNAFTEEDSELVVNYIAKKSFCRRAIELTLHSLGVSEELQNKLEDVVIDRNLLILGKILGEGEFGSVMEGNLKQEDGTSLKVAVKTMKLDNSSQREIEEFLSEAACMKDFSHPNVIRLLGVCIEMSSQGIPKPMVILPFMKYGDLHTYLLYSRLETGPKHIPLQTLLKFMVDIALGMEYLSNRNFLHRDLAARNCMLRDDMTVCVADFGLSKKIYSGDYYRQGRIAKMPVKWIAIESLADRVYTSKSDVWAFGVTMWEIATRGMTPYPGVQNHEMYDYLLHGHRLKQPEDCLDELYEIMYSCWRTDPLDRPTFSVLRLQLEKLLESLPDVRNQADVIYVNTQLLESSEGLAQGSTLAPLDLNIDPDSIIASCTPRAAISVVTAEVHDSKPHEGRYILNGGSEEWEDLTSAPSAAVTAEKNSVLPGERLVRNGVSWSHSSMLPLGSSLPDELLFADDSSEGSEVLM

Fyn = Fyn (UniProt P06241); test: as above
Fyn, sequence (P06241 whole entry, looked up): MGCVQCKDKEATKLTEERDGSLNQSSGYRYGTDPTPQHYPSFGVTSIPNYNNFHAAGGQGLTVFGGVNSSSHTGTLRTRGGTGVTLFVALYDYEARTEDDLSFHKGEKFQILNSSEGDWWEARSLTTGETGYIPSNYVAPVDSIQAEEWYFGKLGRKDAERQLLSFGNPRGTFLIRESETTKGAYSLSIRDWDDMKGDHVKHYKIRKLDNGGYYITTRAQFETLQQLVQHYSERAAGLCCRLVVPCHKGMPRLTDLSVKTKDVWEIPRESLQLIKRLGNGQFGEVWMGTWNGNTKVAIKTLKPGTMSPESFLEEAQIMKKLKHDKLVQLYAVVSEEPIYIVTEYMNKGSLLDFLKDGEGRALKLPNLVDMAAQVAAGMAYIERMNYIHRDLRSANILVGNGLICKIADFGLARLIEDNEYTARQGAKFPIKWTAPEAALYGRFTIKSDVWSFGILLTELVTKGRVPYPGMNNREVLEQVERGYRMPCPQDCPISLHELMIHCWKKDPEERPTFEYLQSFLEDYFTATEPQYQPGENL

AncSZ = test: as above
FGFR3 = FGFR3 (UniProt P22607); test: as above
FGFR3, sequence (P22607 whole entry, looked up): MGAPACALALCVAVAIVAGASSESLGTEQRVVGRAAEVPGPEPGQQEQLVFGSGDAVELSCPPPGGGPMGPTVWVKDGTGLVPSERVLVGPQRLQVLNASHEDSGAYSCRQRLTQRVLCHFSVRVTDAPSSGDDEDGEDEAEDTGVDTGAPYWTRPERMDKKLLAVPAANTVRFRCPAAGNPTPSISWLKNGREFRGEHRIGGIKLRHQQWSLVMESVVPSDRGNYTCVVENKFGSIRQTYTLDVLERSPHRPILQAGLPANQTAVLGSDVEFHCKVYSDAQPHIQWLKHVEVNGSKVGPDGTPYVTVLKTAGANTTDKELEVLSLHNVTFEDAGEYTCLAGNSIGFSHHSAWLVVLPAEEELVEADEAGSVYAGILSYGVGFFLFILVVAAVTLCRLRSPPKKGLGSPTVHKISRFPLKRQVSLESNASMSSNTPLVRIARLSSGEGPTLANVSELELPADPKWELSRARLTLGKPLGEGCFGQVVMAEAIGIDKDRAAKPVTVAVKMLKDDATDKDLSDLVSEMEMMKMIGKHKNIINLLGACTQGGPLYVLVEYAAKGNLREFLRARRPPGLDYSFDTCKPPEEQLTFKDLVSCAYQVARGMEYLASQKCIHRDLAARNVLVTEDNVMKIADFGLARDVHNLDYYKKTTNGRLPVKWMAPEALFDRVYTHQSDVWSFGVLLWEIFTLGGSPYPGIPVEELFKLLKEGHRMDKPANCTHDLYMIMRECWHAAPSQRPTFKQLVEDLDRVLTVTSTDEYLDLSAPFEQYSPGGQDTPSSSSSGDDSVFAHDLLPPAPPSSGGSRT

c-Src = test: as above
Hck = Hck (UniProt P08631); test: as above
Hck, sequence (P08631 whole entry, looked up): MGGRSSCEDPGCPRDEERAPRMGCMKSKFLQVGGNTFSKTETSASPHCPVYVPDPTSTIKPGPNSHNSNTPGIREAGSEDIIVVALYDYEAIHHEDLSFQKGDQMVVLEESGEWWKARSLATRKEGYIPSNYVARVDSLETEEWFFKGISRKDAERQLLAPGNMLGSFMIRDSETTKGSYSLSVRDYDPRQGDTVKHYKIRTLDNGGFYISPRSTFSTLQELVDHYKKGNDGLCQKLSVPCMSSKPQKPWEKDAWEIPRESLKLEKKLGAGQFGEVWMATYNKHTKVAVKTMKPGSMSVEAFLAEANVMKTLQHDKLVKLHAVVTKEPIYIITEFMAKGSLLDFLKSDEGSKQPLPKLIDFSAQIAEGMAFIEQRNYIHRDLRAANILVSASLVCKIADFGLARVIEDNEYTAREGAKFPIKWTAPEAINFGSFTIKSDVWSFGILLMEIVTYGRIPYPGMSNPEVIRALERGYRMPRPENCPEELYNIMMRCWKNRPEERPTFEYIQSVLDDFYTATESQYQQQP

Fes = Fes (UniProt P07332); test: as above
FGFR1 = FGFR1 (UniProt P11362); test: as above
FGFR1, sequence (P11362 whole entry, looked up): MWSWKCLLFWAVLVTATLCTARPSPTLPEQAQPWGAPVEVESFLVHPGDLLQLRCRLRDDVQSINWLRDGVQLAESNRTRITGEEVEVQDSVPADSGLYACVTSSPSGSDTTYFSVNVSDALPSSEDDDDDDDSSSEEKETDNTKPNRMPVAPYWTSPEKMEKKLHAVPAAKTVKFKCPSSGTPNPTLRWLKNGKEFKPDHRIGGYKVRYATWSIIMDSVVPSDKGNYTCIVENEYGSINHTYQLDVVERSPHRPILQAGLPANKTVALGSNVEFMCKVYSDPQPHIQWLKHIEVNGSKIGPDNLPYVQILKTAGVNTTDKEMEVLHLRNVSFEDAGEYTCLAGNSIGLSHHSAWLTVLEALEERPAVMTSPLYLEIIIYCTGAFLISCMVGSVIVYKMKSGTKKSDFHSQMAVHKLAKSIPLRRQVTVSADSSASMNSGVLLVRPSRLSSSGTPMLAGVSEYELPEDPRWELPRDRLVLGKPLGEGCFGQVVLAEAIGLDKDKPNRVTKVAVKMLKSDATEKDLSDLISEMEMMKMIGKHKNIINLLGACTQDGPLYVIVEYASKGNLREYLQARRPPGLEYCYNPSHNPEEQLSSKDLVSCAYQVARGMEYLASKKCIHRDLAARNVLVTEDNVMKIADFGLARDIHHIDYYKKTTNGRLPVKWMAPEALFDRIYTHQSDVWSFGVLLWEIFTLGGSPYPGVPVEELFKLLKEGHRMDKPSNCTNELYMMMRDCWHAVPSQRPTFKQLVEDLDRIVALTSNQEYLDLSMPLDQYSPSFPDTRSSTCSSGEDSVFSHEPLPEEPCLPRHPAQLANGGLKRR

Jak2 = Jak2 (UniProt O60674); test: as above
EPHB2 = EPHB2 (UniProt P29323); test: as above
EPHB2, sequence (P29323 whole entry, looked up, the tested form may be a part): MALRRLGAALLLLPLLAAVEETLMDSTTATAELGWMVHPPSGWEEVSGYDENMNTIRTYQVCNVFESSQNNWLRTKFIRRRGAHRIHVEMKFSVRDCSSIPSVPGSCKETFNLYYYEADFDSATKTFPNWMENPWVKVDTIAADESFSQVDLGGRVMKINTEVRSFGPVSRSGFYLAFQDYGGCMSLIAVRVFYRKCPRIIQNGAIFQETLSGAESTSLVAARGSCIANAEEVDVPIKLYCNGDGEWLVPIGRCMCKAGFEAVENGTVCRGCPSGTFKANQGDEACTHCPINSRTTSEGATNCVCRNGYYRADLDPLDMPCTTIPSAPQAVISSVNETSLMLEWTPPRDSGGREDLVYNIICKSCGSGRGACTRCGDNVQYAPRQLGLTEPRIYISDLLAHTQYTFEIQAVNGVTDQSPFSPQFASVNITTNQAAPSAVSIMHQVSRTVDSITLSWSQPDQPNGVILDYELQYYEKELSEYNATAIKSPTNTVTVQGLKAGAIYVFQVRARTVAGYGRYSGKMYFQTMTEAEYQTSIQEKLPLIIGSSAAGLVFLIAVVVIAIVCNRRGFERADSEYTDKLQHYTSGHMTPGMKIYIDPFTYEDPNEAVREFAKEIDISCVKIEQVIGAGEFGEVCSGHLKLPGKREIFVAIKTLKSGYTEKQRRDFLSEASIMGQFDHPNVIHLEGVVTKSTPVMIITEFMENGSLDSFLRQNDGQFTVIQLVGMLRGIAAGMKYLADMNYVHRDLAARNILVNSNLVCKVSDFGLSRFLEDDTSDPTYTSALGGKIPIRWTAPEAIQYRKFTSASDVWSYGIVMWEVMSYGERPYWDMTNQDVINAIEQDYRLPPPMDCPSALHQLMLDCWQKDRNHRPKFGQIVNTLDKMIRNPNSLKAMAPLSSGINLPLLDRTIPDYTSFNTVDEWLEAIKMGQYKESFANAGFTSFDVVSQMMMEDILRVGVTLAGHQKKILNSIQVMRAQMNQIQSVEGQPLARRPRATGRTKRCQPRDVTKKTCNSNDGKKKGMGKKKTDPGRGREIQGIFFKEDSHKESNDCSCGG
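Throughout, for SH2 binding enrichment of the phosphorylated peptide, bacterial display: peptide library displayed on the E. coli surface as eCPX fusions, selected cells deep-sequenced, score is each peptide's frequency after selection divided by its frequency in the input.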
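Throughout, for phosphorylation enrichment, bacterial display: 11-residue human phosphosite peptides and single-mutation variants displayed on the E. coli surface, counted by deep sequencing, each peptide's frequency after selection divided by its frequency in the unselected input library; frequency after pTyr selection over input frequency; kinase dosed for 20-30% of maximal phosphorylation in three min.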

Row | Sequence | SH2 binding enrichment (SHP2-C SH2) | SH2 binding enrichment (c-Src SH2) | SH2 binding enrichment (Grb2 SH2) | phosphorylation enrichment (EPHB1) | phosphorylation enrichment (c-Abl (mouse)) | phosphorylation enrichment (Fer (mouse)) | phosphorylation enrichment (MERTK) | phosphorylation enrichment (Fyn) | phosphorylation enrichment (AncSZ) | phosphorylation enrichment (FGFR3) | phosphorylation enrichment (c-Src) | phosphorylation enrichment (Hck) | phosphorylation enrichment (Fes) | phosphorylation enrichment (FGFR1) | phosphorylation enrichment (Jak2) | phosphorylation enrichment (EPHB2)
1 | KLPYPYDDPFS [GPX2_Y127] | 0.544 | 3.58 | 0.97 | 0.458 | 0.705 | 0.434 | 0.515 | 0.534 | 1.09 | 0.745 | 0.546 | 0.589 | 1.06 | 0.507 | 0.954 | 0.532
2 | KLQKFYRQNPD [EHHADH_Y683_YF] | 0.647 | 0.418 | 0.719 | 0.545 | 0.581 | 0.387 | 0.452 | 0.418 | 0.499 | 0.416 | 0.409 | 0.443 | 0.498 | 0.343 | 0.393 | 0.348
3 | KMATAYIRRMS [BCO1_Y264] | 0.497 | 0.389 | 0.593 | 0.359 | 0.544 | 0.362 | 0.468 | 0.425 | 0.68 | 0.431 | 0.514 | 0.425 | 0.572 | 0.461 | 0.58 | 0.495
4 | KPEKTYGLRNE [CEP43_Y267_K271N] | 0.758 | 0.534 | 0.594 | 0.39 | 0.551 | 0.321 | 0.397 | 0.37 | 0.494 | 0.371 | 0.439 | 0.406 | 0.569 | 0.394 | 0.512 | 0.362
5 | KPMDTYYDSTR [DYNC2H1_Y2230] | 0.66 | 0.898 | 0.903 | 0.632 | 0.678 | 0.447 | 0.498 | 0.543 | 0.874 | 0.76 | 0.7 | 1.13 | 0.774 | 0.998 | 0.545 | 0.675
6 | KRFRIYHLAIS [BRCA2_Y3009_T3013I_YF] | 1.43 | 1.56 | 1.81 | 0.612 | 1.38 | 0.48 | 0.484 | 0.55 | 0.899 | 0.625 | 0.448 | 0.494 | 0.942 | 0.644 | 0.86 | 0.524
7 | KVIDMYLMGCF [GABRB2_Y308_A304V] | 0.917 | 0.363 | 0.795 | 0.636 | 0.964 | 0.638 | 0.429 | 0.535 | 1.28 | 0.842 | 0.593 | 0.608 | 1.38 | 0.619 | 1.24 | 0.55
8 | KVKPIYFHTRG [AR_Y916_Q920R] | 2.07 | 1.84 | 2.2 | 0.452 | 0.633 | 0.416 | 0.456 | 0.448 | 0.853 | 0.614 | 0.477 | 0.527 | 0.892 | 0.598 | 0.885 | 0.498
9 | KVPRHYDDPGK [FOXG1_Y246] | 1.2 | 1.56 | 1.26 | 0.414 | 1.01 | 1.11 | 0.462 | 0.443 | 0.785 | 0.712 | 0.505 | 0.481 | 1.16 | 0.428 | 1.25 | 0.373
10 | LAAAGYDVEKN [H1-3_Y72] | 0.791 | 0.484 | 0.723 | 0.463 | 0.582 | 0.436 | 0.54 | 0.493 | 0.909 | 0.658 | 0.365 | 0.692 | 1.03 | 0.51 | 0.711 | 0.482
11 | LAARYYNWVSF [FLT4_Y1231] | 1.38 | 2.3 | 6.96 | 1.09 | 1.68 | 5.18 | 4.42 | 0.654 | 1.55 | 3.57 | 1 | 0.64 | 1.8 | 4.29 | 2.14 | 1.02
12 | LALTVYADCLA [ABCA4_Y2063_G2059A] | 0.508 | 0.572 | 0.624 | 1.08 | 1.09 | 0.781 | 0.517 | 0.699 | 1.42 | 1.05 | 0.62 | 0.73 | 1.48 | 0.665 | 1.53 | 0.938
13 | LASSEYPVRRR [GALK1_Y236] | 0.426 | 0.336 | 0.512 | 0.542 | 0.448 | 0.363 | 0.526 | 0.543 | 0.62 | 0.496 | 0.572 | 0.514 | 0.612 | 0.45 | 0.475 | 0.472
14 | LDFNEYVRDLN [HPRT1_Y198_F199V_YF] | 0.795 | 0.617 | 1.13 | 0.804 | 0.911 | 0.634 | 0.556 | 0.674 | 1.69 | 0.628 | 0.567 | 0.707 | 1.47 | 0.532 | 1.31 | 0.665
15 | LDYNEYVRDLN [HPRT1_Y198_F199V] | 1.03 | 0.757 | 0.795 | 0.761 | 0.587 | 0.535 | 0.441 | 0.695 | 1.63 | 1.07 | 0.565 | 0.712 | 1.23 | 0.951 | 1.06 | 0.993

More lines, main results first:

Row | SH2 binding enrichment (SHP2-C SH2) | SH2 binding enrichment (c-Src SH2) | SH2 binding enrichment (Grb2 SH2) | Sequence | phosphorylation enrichment (EPHB1) | phosphorylation enrichment (c-Abl (mouse)) | phosphorylation enrichment (Fer (mouse)) | phosphorylation enrichment (MERTK) | phosphorylation enrichment (Fyn) | phosphorylation enrichment (AncSZ) | phosphorylation enrichment (FGFR3) | phosphorylation enrichment (c-Src) | phosphorylation enrichment (Hck) | phosphorylation enrichment (Fes) | phosphorylation enrichment (FGFR1) | phosphorylation enrichment (Jak2) | phosphorylation enrichment (EPHB2)
16 | 0.783 | 0.553 | 0.931 | KLNNEYLELNY [MME_Y497] | 0.925 | 0.635 | 0.417 | 0.449 | 0.633 | 1.08 | 3.27 | 0.679 | 0.627 | 0.892 | 4.67 | 0.861 | 1.01
17 | 1.16 | 1.25 | 1.65 | KMKGEYYRYLA [YWHAG_Y130_D129E] | 0.639 | 1.34 | 0.409 | 0.957 | 0.607 | 0.981 | 3.14 | 1.07 | 1.09 | 0.961 | 4.78 | 1.68 | 0.717
18 | 0.782 | 0.527 | 0.837 | KNGSNYVVKGN [KIT_Y823_D820G] | 0.346 | 0.411 | 0.375 | 0.466 | 0.449 | 0.526 | 0.368 | 0.482 | 0.45 | 0.576 | 0.435 | 0.484 | 0.38
19 | 0.912 | 0.477 | 0.858 | KPLMPCMRFSR [SMARCE1_Y73_Y73C_YF] | 0.39 | 0.88 | 0.443 | 0.506 | 0.466 | 0.92 | 0.502 | 0.469 | 0.439 | 0.916 | 0.393 | 0.707 | 0.448
20 | 0.499 | 0.441 | 0.717 | KPLMPSMRYSR [SMARCE1_Y73_Y73S] | 0.328 | 0.49 | 0.377 | 0.467 | 0.383 | 0.823 | 0.467 | 0.498 | 0.462 | 0.756 | 0.405 | 0.555 | 0.445
21 | 1.4 | 0.842 | 1.32 | KQLYAYKMLMA [TMC2_Y209] | 0.62 | 0.57 | 0.384 | 0.368 | 0.39 | 0.629 | 0.496 | 0.383 | 0.458 | 0.72 | 0.515 | 0.669 | 0.445
22 | 0.797 | 0.763 | 1.28 | KRGVSYILKLA [SERPINB1_Y84_A82V] | 0.504 | 0.768 | 0.524 | 0.446 | 0.426 | 1.4 | 0.676 | 0.412 | 0.558 | 1.6 | 0.534 | 1.34 | 0.557
23 | 0.63 | 1.08 | 0.613 | KSEFAYEIFDK [MYOM2_Y1024_L1022F] | 0.527 | 0.746 | 0.543 | 0.967 | 0.797 | 1.34 | 0.664 | 2.1 | 0.561 | 1.04 | 0.564 | 1.01 | 0.573
24 | 0.849 | 0.507 | 0.91 | KSVITYSPTTG [ITGB3BP_Y32] | 0.325 | 0.447 | 0.401 | 0.403 | 0.38 | 0.49 | 0.464 | 0.462 | 0.353 | 0.592 | 0.37 | 0.586 | 0.49
25 | 0.704 | 2.9 | 0.875 | KVITDYYVDMK [MPP4_Y566] | 1.71 | 0.758 | 0.496 | 0.577 | 0.557 | 1.26 | 2.64 | 0.597 | 0.576 | 1.07 | 3.97 | 1.4 | 0.865
26 | 1.09 | 1.04 | 1.35 | KWKQKYEESQS [MYH6_Y1462_E1457K] | 0.508 | 0.73 | 0.405 | 0.431 | 0.481 | 0.671 | 0.693 | 0.38 | 0.531 | 0.887 | 0.431 | 0.85 | 0.52
27 | 0.806 | 0.782 | 0.993 | KWLEQYTQAIE [LSP1_Y234_Q229K] | 0.499 | 0.702 | 0.442 | 0.39 | 0.454 | 1.04 | 0.573 | 0.452 | 0.441 | 0.977 | 0.472 | 0.915 | 0.683
28 | 0.968 | 0.508 | 1.11 | LARDMDDKEFF [MET_Y1230_Y1230D_YF] | 0.451 | 0.464 | 0.428 | 0.523 | 0.342 | 0.895 | 1.08 | 0.498 | 0.456 | 0.997 | 0.453 | 0.708 | 0.53
29 | 0.65 | 0.546 | 0.7 | LARHMYDKEFF [MET_Y1230_D1228H_YF] | 0.355 | 0.524 | 0.29 | 0.559 | 0.404 | 0.78 | 0.55 | 0.688 | 0.399 | 1.08 | 0.606 | 0.646 | 0.438
30 | 1.43 | 1.15 | 1.25 | LARHMYDKEYY [MET_Y1230_D1228H] | 0.693 | 0.687 | 0.671 | 0.597 | 0.638 | 1.17 | 0.813 | 0.73 | 0.825 | 0.933 | 0.799 | 0.883 | 0.811
31 | 0.85 | 2.24 | 2 | LCRYGYANTSE [SI_Y1233] | 0.78 | 0.932 | 0.746 | 1.15 | 0.688 | 1.31 | 1.36 | 0.789 | 0.772 | 1.41 | 0.656 | 1.11 | 0.661
32 | 0.748 | 0.498 | 0.772 | LEAVSYSSRYA [RNLS_Y190] | 0.453 | 0.459 | 0.433 | 0.63 | 0.389 | 0.687 | 0.462 | 0.368 | 0.437 | 0.704 | 0.415 | 0.685 | 0.446
33 | 0.733 | 0.58 | 0.902 | LEFGDYHPLKP [VPS35L_Y32] | 1.3 | 1.19 | 0.846 | 1.66 | 0.696 | 2.75 | 7.68 | 0.821 | 4.28 | 1.05 | 11.5 | 6.7 | 1.26
